This is an account of results in article PMC6208296, “Redox regulation of pyruvate kinase M2 by cysteine oxidation and S-nitrosation” (Biochemical Journal, 2018).

In experiment [1] the target is Pyruvate kinase M2 (Homo sapiens) (UniProt P14618). In words: gel filtration. To be noted: cited from earlier work. A general note: SEC sorts molecules by how far they enter the pores of the column.
In experiment [2] the target is M2 isoform of human pyruvate kinase, wild type (human) (UniProt P14618). In words: SEC; analytical gel filtration, Superdex 200 PC 3.2/30 in PBS-CM, room temperature; stock of ∼20 mg/ml diluted to 0.1 mg/ml and incubated 1 h without or with 1 mM DTT or 20 μM H2O2; tetramer to monomers, peak areas on a bimodal distribution.
For experiment [3] the target is unchanged. Briefly: SEC; analytical gel filtration, Superdex 200 PC 3.2/30 in PBS-CM, room temperature; 0.1 mg/ml incubated 12 h (equilibrium) without or with 1 mM DTT or 20 μM H2O2; tetramer to monomers, peak areas on a bimodal distribution.

Sequence of M2 isoform of human pyruvate kinase, wild type, P14618 1-531 (enzyme; other documents disagree on this pair) (P14618 whole entry, canonical isoform): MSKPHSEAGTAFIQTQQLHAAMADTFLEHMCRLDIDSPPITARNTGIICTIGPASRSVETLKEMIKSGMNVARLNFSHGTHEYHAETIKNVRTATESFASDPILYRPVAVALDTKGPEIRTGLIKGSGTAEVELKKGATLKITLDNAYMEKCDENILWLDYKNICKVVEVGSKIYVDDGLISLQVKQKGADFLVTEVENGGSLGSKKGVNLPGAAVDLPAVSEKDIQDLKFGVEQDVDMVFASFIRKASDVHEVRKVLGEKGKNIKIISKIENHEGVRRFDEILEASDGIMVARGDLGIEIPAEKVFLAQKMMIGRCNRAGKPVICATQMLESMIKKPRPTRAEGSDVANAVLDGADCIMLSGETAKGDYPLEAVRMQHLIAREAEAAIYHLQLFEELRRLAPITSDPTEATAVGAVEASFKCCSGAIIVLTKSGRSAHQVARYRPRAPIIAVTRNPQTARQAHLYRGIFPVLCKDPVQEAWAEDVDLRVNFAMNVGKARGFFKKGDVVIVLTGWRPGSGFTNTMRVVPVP
Sequence of Pyruvate kinase M2 (P14618 2-531): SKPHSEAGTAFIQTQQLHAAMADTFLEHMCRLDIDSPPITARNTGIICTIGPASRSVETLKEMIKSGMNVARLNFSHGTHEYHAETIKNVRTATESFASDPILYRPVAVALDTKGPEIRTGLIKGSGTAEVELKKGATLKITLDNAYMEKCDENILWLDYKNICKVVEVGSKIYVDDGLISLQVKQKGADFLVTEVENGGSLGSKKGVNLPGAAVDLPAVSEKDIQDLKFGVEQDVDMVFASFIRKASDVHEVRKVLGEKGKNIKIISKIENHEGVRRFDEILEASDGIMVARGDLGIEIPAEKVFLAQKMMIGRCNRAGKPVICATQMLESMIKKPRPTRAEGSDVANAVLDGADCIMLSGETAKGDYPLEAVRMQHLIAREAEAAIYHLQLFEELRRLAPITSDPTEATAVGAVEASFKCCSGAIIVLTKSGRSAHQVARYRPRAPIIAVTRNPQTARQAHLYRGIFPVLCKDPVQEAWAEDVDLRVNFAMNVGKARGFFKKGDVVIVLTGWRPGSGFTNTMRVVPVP

“Pyruvate kinase M2 (from UniProt P14618)”: the Kd in experiment [1] is 900 nM.

Consider “M2 isoform of human pyruvate kinase, wild type, P14618 1-531 (enzyme; other documents disagree on this pair)”, for which, in experiment [2], the percent tetramer (20 μM H2O2, 1 h) was 63%; the percent tetramer (1 mM DTT, 1 h) is 64%; the percent tetramer (no DTT, no H2O2, 1 h) is 62%. For the same substance, in experiment [3], the percent tetramer (20 μM H2O2, 12 h) came to 42%; the percent tetramer (1 mM DTT, 12 h) amounted to 71%; the percent tetramer (no DTT, no H2O2, 12 h) is 55%.

One may read the Kd as the equilibrium constant for the complex coming apart.
